Results on 3 molecules are retold here after US20180118802A1 (published 2018).

First the molecules themselves.
B1: RAP d3 (ligand, not shown: small tags and cut ends)
chain: LDRLRRVSHQGYSTEAEFEEPRVIDLWDLAQSANLTDKELEAFREELKHFEAKIEKHNHYQKQLEIAHEKLRHAESVGDGERVSRSREKHALLEGRTKELGYTVKKHLQDLSGRISRAR
notes: also called wild-type RAP d3
B2: MegaRAP1 d3 (ligand, not shown: small tags and cut ends)
chain: B1 chain with S13T, E17K, H49Y, E51K, K56A, K70E
notes: also called RAPv2A d3; RAP v2
B3: MAT CR12 (other)
chain: PCPGQFTCRTGRCIRKELRCDGWADCTDHSDELNCSCDAGHQFTCKNKFCKPLFWVCDSVNDCGDNSDEQGCS
notes: also called ST14 CR12; not shown: N-terminal hexahistidine/S-peptide tag of pET30(+)a

The target of experiment [1] is T1, LRP1 CR3-5 (human, UniProt Q07954 852-973).
T1 construct: range 852-973; not shown: N-terminal hexahistidine and S-peptide of pET30(+)a
The experiment can be described thus: solid-phase binding assay, CR protein coated, anti-RAP detection. The procedure:
(§1) Solid phase binding assays—Purified, refolded CR protein (1 μg) was bound to Nunc Maxisorp™ 96-well plates in TBS pH 8 supplemented with 5 mM CaCl₂ (TBSC) overnight at 4° C. Wells were washed with TBSC and then blocked with TBSC containing 2% bovine serum albumin (BSA). RAP ligands were then incubated with the immobilized receptor at a range of concentrations for 2 hours in the above blocking buffer supplemented with 0.05% Tween-20 at room temperature. Control wells contained no added ligand. As an additional control, to determine whether the absence of calcium affected binding, 10 mM EGTA was included in the incubation medium for some samples. Wells were washed with TBSTC and bound ligands detected with polyclonal anti-RAP (BP41/42, 1:1,000, BioMarin). Excess primary antibody was removed and wells washed before incubation with the secondary antibody, HRP-conjugated goat anti rabbit IgG (Bio-Rad). After washing, TMB substrate solutions (Bio-Rad) were added to detect HRP. Color development was stopped with 1N HCl. Absorption at 450 nm was measured with a microplate spectrophotometer (Molecular Devices). Data were plotted and Kd values derived by non-linear regression with the assumption of single-site binding (GraphPad Prism).

In another experiment the target is T2, LRP2 CR89 Y1042W (human, UniProt P98164 1022-1105).
T2 construct: also called WVWR
T2 sequence: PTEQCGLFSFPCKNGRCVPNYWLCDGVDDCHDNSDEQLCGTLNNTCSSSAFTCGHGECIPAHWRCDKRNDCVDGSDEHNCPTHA
The experiment is described as above. How it is done: as §1
(§2) One premise of this work was that amino acids at A, C, A′ and C′ within the calcium-binding loops of a CR pair were key determinants of binding affinity for RAP and would be similarly important for binding of RAP variants. To test this idea, mutant LRP2 CR89 were prepared in which the native, non-canonical residues at these positions were sequentially substituted with the non-native, canonical residues. As defined above, the A, C, A′, C′ string for LRP2 CR89 is YVWR. Mutants included LRP2 CR89 Y1042W (WVWR), LRP2 CR89 V1047D (YDWR), LRP2 CR89 R1088D (YVWD), LRP2 CR89 V1047D R1088D (YDWD), LRP2 CR89 Y1042W V1047D R1088D (WDWD), LRP2 CR89 Y1042W V1047D (WDWR), LRP2 CR89 Y1042W R1088D (WVWD). Binding to both RAP d3 and MegaRAP1 d3 were measured for each LRP2 CR89 mutant by solid-phase assay.

In the next experiment the target is T3, LRP2 CR89 V1047D R1088D (human, UniProt P98164 1022-1105).
T3 construct: also called YDWD
T3 sequence: T2 sequence with W22Y, V27D, R68D
The experiment is described as above. The procedure: as §1, §2

For another experiment, the target named is T4, LRP2 CR89 Y1042W R1088D (human, UniProt P98164 1022-1105).
T4 construct: also called WVWD
T4 sequence: T2 sequence with R68D
The description is as above. The procedure: as §1, §2

The target of experiment [2] is T5, LRP2 CR89 (human, UniProt P98164 1025-1102).
T5 construct: domain: CR89; also called YVWR; not shown: N-terminal hexahistidine and S-peptide of pET30(+)a
The experiment is described as above. How it is done: as §1, §2

Experiment [3] concerns the target T6, LRP2 CR89 Y1042W V1047D R1088D (human, UniProt P98164 1022-1105).
T6 construct: also called WDWD
T6 sequence: T2 sequence with V27D, R68D
Described as above. The procedure:
as §1, §2

The target in the next experiment is T7, LRP2 CR89 R1088D (human, UniProt P98164 1022-1105).
T7 construct: also called YVWD
The description is as above. The procedure: as §1, §2

For another experiment, the target named is T8, LRP2 CR89 V1047D (human, UniProt P98164 1022-1105).
T8 construct: also called YDWR
T8 sequence: T2 sequence with W22Y, V27D
Described as above. The procedure:
as §1, §2

Another experiment deals with T9, VLDLR CR6-8 (human, UniProt P98155 235-358).
T9 construct: range 235-358; not shown: N-terminal hexahistidine and S-peptide of pET30(+)a
Described as above. The source says:
(§3) Alternatively, the affinity differences between MegaRAP I d3 and MegaRAP1 d3 E270K may have been insufficient to alloW the latter to predominate upon iterative panning. A double revertant, T213S, E270K, had binding behavior that was not distinguishable from MegaRAP1 d3 in our assays. […] The binding behavior of the K251E, E270K double revertant implies a strong dependence of the affinity of MegaRAP1 d3 for LRP2 CR89 on the E251K mutation. […] Therefore, the K256A mutation in MegaRAP1 d3 is a crucial determinant of the ability of this variant to discriminate between the two receptor fragments, exerting its effect by negatively impacting affinity for LRP1 CR3-5 while at the same time improving affinity for LRP2 CR89.

Experiment [4] addresses T1, LRP1 CR3-5. The description is as above.
Description: as §3
This is another data set of the same source.

For experiment [5], the target named is T5, LRP2 CR89. The experiment is described as above. The procedure: (§4) Wells were washed with TBSTC and bound ligands detected with polyclonal anti-RAP (BP41/42, 1:1,000, BioMarin). Excess primary antibody was removed and wells washed before incubation with the secondary antibody, HRP-conjugated goat anti rabbit IgG (Bio-Rad). After washing, TMB substrate solutions (Bio-Rad) were added to detect HRP. Color development was stopped with 1N HCl. Absorption at 450 nm was measured with a microplate spectrophotometer (Molecular Devices). Data were plotted and Kd values derived by non-linear regression with the assumption of single-site binding (GraphPad Prism).
(§5) Next, the binding of RAP d3 and MegaRAP1 d3 proteins to LRP1 CR3-5 and LRP2 CR89 was assessed. […] In all cases, 10 mM EGTA prevented binding of both RAP d3 and MegaRAP1 d3 to CR proteins. Since calcium was the only divalent metal ion present in the binding buffer, this observation is consistent with both RAP d3 and MegaRAP1 d3 binding to calcium-loaded CR pairs. […] Therefore, wild-type RAP d3 and MegaRAP1 d3 have inverted binding preferences for these two receptor fragments.
The source holds these as a separate data set.

In experiment [6] the target is T1, LRP1 CR3-5. Described as above. The procedure: as §4, §5
This is another data set of the same source.

In a further experiment the target is T10, LRP2 CR89 Y1042W V1047D (human, UniProt P98164 1022-1105).
T10 construct: also called WDWR
T10 sequence: T2 sequence with V27D
The description is as above. The procedure:
as §1, §2

In the experiment “RAP d3” the target is B1. Kind of experiment: solid-phase binding assay, ligand at 80 nM, CR protein coated (FIG. 7). The procedure: as §1
The apparent dissociation constant for binding of VRAP1 d3 to VLDLR CR78 was determined to be 44±9 nM. […]

Residue numbers refer to the chain shown, from its start. Like-named read-outs stand apart in the source and are kept apart here.

T1 sequence (Q07954 852-973, form in doubt): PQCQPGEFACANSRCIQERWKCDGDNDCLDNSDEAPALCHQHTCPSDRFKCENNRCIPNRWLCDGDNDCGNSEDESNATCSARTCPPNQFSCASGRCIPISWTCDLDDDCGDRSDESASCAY
T5 sequence (P98164 1025-1102): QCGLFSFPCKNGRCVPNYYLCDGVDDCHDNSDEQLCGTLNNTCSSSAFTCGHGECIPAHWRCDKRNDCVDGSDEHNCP

Broadly, the Kd is the concentration at which binding is half-saturated. A lower Kd goes with tighter binding. Take B1: the Kd with LRP1 CR3-5 [1] was 0.016 µM; with VLDLR CR6-8, greater than 0.3 µM; with LRP1 CR3-5 [4], 0.011 µM; in the experiment with LRP1 CR3-5 [6], 0.016 µM. Further, the “% max bind” value with LRP2 CR89 Y1042W came to 9%; with LRP2 CR89 V1047D R1088D, 6%; in the experiment with LRP2 CR89 Y1042W R1088D it was 16%; with LRP2 CR89 [2] it was 7%; in [3], 15%; with LRP2 CR89 R1088D, 7%. For the same molecule, the “% max bind” value with LRP2 CR89 V1047D came out at 6%. Further, the “% max” value with LRP2 CR89 [5] turned out to be 5%; in the experiment with LRP1 CR3-5 [6] it was 76%.
Take B2: the “% max bind” value with LRP2 CR89 Y1042W was 5%. Moreover, the binding result (with LRP2 CR89 Y1042W; in the experiment with LRP2 CR89 V1047D R1088D; in the experiment with LRP2 CR89 Y1042W R1088D; with LRP2 CR89 Y1042W V1047D; in experiment [3]; in the experiment with LRP2 CR89 V1047D) was “no binding” throughout.
For B3, the binding result with RAP d3 is listed as “no binding (tested: 80 nM)”.
